Literature values as cited in PMC5805400.
Like-named read-outs stand apart in the source and are kept apart here.

Legend:
CYP2J2 (Homo sapiens) = CYP2J2 (Homo sapiens) (UniProt P51589); experiment: spin shift
[1] = target: CYP2B4 (Oryctolagus cuniculus) (UniProt P00178)
[2] = target: CYP2B4 (Oryctolagus cuniculus) (UniProt P00178); remark: listed apart in the source
[3] = target: ICP47 (Human alphaherpesvirus 1) (UniProt P03170)
[4] = target: ICP47 (Human alphaherpesvirus 1) (UniProt P03170); remark: listed apart in the source

UniProt P03170, sequence (P03170 whole entry): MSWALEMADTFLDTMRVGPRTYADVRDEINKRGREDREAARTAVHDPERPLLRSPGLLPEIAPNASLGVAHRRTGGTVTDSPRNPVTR
UniProt P00178, sequence (P00178 whole entry): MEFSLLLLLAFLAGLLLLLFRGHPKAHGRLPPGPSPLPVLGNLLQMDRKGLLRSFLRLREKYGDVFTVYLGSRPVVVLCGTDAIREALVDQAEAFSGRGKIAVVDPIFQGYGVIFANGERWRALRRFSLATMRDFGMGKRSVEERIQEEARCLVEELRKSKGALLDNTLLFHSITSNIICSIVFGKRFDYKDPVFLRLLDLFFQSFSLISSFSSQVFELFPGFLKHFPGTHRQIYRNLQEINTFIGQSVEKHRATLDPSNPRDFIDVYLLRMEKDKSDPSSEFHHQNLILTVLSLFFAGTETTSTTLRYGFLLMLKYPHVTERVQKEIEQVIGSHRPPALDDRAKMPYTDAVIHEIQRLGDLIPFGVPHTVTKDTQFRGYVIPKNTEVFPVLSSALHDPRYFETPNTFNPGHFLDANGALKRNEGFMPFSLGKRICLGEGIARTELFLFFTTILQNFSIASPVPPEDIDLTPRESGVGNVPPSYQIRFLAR
UniProt P51589, sequence (P51589 whole entry): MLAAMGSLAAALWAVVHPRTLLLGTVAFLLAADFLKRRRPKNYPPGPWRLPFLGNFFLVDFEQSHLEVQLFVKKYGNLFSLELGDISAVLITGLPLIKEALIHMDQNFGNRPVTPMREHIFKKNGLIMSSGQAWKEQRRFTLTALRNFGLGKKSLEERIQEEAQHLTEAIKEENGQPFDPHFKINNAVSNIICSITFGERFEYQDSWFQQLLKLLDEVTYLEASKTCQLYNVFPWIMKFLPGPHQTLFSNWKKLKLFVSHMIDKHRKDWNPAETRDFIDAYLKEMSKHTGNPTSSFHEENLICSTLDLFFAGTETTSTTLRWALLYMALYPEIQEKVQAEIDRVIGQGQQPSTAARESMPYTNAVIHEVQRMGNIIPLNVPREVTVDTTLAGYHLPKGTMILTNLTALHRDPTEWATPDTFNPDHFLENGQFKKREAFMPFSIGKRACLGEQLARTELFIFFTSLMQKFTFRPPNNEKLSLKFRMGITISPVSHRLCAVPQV

CPR (from UniProt P16435)
Kd (CYP2J2 (Homo sapiens)): 120 nM

Cytochrome b5 (from UniProt P00169)
Kd [1]: 8 nM
Kd [2]: 140 nM

TAP (from UniProt Q03518)
Ki [3]: 210 nM
Ki [4]: 280 nM
